Several values for one entry are separate records, joined by “and”; a condition that tells them apart may be missing. Equal values may be shown once.
What was measured:
[1] = system: CT-TALE (dAvrBs3 TALE without periodic non-RVD mutations at repeat positions 4 and 32); assay: ITC; conditions: ITC: 50 mM Tris-HCl pH 8.0, 200 mM NaCl, 1 mM DTT, 5% glycerol; 15 and 25 °C; 96 μM DNA injected into TALE; single-site model
[2] = system: VT-TALE (dAvrBs3 TALE with periodic non-RVD mutations at repeat positions 4 and 32); assay: ITC; conditions: ITC: 50 mM Tris-HCl pH 8.0, 200 mM NaCl, 1 mM DTT, 5% glycerol; 15 and 25 °C; 96 μM DNA injected into TALE; single-site model

Row | Sequence | Kd [1] | Kd [2]
1 | GGGTATACTCACTGGGTGTGGGGG (double strand) [EBEn] | 109 nM and 305 nM | 117 nM and 262 nM
2 | GGGTATACTCACACAATAGCTGGG (double strand) [EBEf] | 139 nM and 346 nM | 131 nM and 326 nM
